The text below walks through data of the supplement of paper PMC5998384.

In data set [1] the test system is HeLa Kyoto. Briefly: solubility change mitosis vs G1/S (difference of NP-40 vs SDS log2 ratios) (log2 ratio difference); higher = more soluble in mitosis.
In data set [2] the test system is HeLa Kyoto. Briefly: solubility in G1/S (NP-40 vs SDS abundance) (log2 ratio); higher = more soluble. To be noted: cell cycle stage: G1/S.
Data set [3] concerns HeLa Kyoto. Briefly: melting temperature (median over replicates), in situ; higher = more thermally stable.
The test system of data set [4] is HeLa Kyoto. As to the kind of experiment: thermal stability score vs G1/S (z-score of summed log2 fold changes over temperatures); higher = more thermally stable than in G1/S.
Setting [5] is: cell cycle stage: early G1 (4.5 h after nocodazole release).
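Throughout, for melting temperature (median over replicates), in situ: HeLa Kyoto cells synchronized by double thymidine or nocodazole block, proteins quantified by TMT10plex mass spectrometry, three independent biological replicates.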
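Throughout, for solubility change mitosis vs G1/S (difference of NP-40 vs SDS log2 ratios): synchronized HeLa Kyoto cells (double thymidine block for G1/S, nocodazole release for mitosis), protein amounts in NP-40 versus SDS lysates quantified by mass spectrometry, three biological replicates.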
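Throughout, for solubility in G1/S (NP-40 vs SDS abundance): HeLa Kyoto cells arrested at G1/S by double thymidine block, proteins quantified by TMT10plex mass spectrometry in mild NP-40 versus SDS extracts, three biological replicates.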
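Throughout, for thermal stability score vs G1/S (z-score of summed log2 fold changes over temperatures): synchronized HeLa Kyoto cells, proteins quantified by TMT10plex mass spectrometry, three biological replicates, mitosis taken 0.5 h after nocodazole release, G1/S directly after double thymidine block.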

Chain of CBX3 (chain, as listed by the source): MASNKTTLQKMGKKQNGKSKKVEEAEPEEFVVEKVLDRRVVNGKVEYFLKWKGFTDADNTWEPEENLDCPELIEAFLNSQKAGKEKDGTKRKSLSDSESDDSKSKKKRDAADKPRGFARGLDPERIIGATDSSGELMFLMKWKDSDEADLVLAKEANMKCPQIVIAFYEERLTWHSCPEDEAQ
Chain of CDK12 (chain, as listed by the source): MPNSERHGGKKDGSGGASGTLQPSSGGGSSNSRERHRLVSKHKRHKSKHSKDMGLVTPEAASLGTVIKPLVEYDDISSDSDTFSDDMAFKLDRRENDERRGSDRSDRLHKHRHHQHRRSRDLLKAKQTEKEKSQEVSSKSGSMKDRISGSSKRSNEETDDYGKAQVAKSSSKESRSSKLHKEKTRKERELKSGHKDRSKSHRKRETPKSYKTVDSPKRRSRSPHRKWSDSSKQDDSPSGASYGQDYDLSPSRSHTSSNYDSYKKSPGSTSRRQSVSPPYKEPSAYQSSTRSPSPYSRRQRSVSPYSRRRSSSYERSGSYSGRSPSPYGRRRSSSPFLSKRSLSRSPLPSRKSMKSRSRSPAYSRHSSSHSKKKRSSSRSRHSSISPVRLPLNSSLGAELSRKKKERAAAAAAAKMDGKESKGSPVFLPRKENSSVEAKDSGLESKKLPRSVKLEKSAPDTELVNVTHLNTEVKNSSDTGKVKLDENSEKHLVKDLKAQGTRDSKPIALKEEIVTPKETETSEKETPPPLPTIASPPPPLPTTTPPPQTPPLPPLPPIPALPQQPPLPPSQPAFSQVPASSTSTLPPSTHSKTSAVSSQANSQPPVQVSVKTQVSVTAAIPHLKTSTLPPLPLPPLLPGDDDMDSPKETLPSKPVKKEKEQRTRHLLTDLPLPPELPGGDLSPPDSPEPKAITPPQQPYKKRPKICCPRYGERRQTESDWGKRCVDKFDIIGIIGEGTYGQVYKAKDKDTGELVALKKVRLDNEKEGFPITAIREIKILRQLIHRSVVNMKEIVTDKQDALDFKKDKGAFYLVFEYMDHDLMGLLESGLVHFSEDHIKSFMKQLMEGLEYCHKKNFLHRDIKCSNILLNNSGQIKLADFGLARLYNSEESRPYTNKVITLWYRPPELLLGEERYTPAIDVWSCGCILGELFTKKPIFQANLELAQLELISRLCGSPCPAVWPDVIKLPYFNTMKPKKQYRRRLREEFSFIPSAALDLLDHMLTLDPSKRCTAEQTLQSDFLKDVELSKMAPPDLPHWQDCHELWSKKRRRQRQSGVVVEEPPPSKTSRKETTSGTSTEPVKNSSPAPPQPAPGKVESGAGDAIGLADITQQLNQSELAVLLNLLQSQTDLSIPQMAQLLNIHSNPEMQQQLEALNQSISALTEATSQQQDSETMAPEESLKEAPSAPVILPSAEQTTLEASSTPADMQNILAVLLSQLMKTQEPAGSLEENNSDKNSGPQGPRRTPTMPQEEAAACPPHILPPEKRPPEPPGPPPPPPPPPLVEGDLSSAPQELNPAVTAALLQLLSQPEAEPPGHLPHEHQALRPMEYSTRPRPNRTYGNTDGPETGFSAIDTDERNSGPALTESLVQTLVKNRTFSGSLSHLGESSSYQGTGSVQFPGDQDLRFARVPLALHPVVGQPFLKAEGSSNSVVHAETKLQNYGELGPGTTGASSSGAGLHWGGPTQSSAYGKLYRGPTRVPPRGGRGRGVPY
Chain of CHID1 (chain, as listed by the source): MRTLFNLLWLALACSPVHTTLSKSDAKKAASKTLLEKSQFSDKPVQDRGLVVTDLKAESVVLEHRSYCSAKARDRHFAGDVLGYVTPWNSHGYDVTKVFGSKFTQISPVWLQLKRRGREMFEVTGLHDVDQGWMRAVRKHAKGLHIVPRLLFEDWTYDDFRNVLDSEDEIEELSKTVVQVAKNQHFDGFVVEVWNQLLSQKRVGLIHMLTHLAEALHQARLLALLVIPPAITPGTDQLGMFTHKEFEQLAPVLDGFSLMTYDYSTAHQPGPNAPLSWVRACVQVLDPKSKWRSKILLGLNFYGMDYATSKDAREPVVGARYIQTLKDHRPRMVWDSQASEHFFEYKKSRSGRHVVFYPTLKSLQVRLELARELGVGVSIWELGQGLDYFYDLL
Chain of CBX1 (chain, as listed by the source): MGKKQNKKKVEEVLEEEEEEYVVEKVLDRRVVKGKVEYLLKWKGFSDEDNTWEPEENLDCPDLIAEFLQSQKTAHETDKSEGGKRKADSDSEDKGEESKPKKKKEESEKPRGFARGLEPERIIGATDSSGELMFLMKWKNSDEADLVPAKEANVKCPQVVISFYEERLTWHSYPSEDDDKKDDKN
Chain of CHAC2 (chain, as listed by the source): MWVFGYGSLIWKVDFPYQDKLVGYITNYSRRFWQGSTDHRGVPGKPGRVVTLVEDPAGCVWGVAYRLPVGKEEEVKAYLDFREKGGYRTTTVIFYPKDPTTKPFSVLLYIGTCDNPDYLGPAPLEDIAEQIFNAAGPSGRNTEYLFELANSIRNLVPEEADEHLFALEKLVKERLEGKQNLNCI
Chain of CCBL2 (chain, as listed by the source): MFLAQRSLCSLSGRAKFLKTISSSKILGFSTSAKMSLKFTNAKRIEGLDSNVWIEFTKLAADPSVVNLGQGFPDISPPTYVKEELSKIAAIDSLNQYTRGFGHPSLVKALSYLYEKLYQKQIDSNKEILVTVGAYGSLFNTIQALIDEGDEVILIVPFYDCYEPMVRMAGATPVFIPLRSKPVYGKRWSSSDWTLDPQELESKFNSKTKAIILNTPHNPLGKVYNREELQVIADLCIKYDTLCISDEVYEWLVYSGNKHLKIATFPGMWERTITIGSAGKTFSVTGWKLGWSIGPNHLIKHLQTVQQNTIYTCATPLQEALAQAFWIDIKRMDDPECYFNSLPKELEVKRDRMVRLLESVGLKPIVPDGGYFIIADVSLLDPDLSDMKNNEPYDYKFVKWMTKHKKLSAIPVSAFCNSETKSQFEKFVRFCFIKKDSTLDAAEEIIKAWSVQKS

On to CBX1, for which, in data set [1], the “solubility change mitosis (log2)” value came out at 0.55. For the same substance, in data set [2], the “solubility in G1/S (log2)” value is -0.629. In addition, the melting temperature is 51.2 °C in data set [3] (cell cycle stage: G1/S) and 52.8 °C in data set [3] (cell cycle stage: mitosis). Besides, the thermal stability score in data set [4] (setting [5]) was determined as 2.04; in data set [4] (cell cycle stage: mitosis), 1.13.

For the substance CBX3, the “solubility change mitosis (log2)” value in data set [1] amounted to 0.672. In addition, in data set [2], the “solubility in G1/S (log2)” value is -0.141. Further, the melting temperature is 49.9 °C in data set [3] (cell cycle stage: G1/S) and 50.9 °C in data set [3] (cell cycle stage: mitosis). The thermal stability score in data set [4] (setting [5]) is 0.789; in data set [4] (cell cycle stage: mitosis) it was 1.67.

For CCBL2, the “solubility change mitosis (log2)” value in data set [1] was -0.21. Also, the “solubility in G1/S (log2)” value in data set [2] is 0.16. For the same substance, the melting temperature was found to be 57.2 °C in data set [3] (cell cycle stage: G1/S) and 57.5 °C in data set [3] (cell cycle stage: mitosis). In addition, the figures for the thermal stability score in data set [4] (setting [5]) and in data set [4] (cell cycle stage: mitosis) were -0.947 and -1.75, respectively.

Consider CDC42BPB, for which the “solubility change mitosis (log2)” value in data set [1] is -0.105. Further, the “solubility in G1/S (log2)” value in data set [2] is -0.234. Also, the figures for the melting temperature in data set [3] (cell cycle stage: G1/S) and in data set [3] (cell cycle stage: mitosis) were 51 °C and 50.6 °C, respectively. Moreover, the thermal stability score worked out at 0.874 in data set [4] (setting [5]) and 0.582 in data set [4] (cell cycle stage: mitosis).

For the substance CDK12, the “solubility change mitosis (log2)” value in data set [1] was found to be 0.238. Besides, the “solubility in G1/S (log2)” value in data set [2] is -0.473. Also, the melting temperature in data set [3] (cell cycle stage: G1/S) is 50.9 °C; in data set [3] (cell cycle stage: mitosis), 52.5 °C. Besides, the values for the thermal stability score in data set [4] (setting [5]) and in data set [4] (cell cycle stage: mitosis) were -0.391 and 0.677, respectively.

For the substance CHAC2, the “solubility change mitosis (log2)” value in data set [1] was -0.0779. Further, the “solubility in G1/S (log2)” value in data set [2] worked out at 0.541. Also, the melting temperature in data set [3] (cell cycle stage: G1/S) was found to be 53 °C; in data set [3] (cell cycle stage: mitosis), 51.9 °C. Besides, the results for the thermal stability score in data set [4] (setting [5]) and in data set [4] (cell cycle stage: mitosis) were 0.759 and 0.354, respectively.

In the case of CHD3, the “solubility change mitosis (log2)” value in data set [1] was determined as 0.14. Besides, in data set [2], the “solubility in G1/S (log2)” value is -0.643. Further, the melting temperature in data set [3] (cell cycle stage: G1/S) worked out at 46.5 °C; in data set [3] (cell cycle stage: mitosis) it was 49.1 °C. Besides, the values for the thermal stability score in data set [4] (setting [5]) and in data set [4] (cell cycle stage: mitosis) were 0.67 and 1.73, respectively.

For CHID1, the “solubility change mitosis (log2)” value in data set [1] is -0.0199. Moreover, the “solubility in G1/S (log2)” value in data set [2] was -0.16. Further, the melting temperature in data set [3] (cell cycle stage: G1/S) worked out at 53.4 °C; in data set [3] (cell cycle stage: mitosis) it was 54 °C. Moreover, the thermal stability score in data set [4] (setting [5]) was 0.711; in data set [4] (cell cycle stage: mitosis), 2.28.
